The source of these data is patent US7432070B2, “Homogenous assay for enzymatic activity” (Pierce Biotechnology, Inc., priority 2003, dated 2008).

Non-standard residues stand in square brackets, D forms with d. No end group written: not given here. pS = N[C@@H](COP(=O)(O)O)C(=O)O; Nva = CCC[C@H](N)C(=O)O

For test [1], the target named is T1, Calpain 1 (Homo sapiens, UniProt P07384).
T1 construct: Calpain 1 from human erythrocytes; purchased Calbiochem; host or cells: human erythrocytes
T1 sequence (P07384 1-714): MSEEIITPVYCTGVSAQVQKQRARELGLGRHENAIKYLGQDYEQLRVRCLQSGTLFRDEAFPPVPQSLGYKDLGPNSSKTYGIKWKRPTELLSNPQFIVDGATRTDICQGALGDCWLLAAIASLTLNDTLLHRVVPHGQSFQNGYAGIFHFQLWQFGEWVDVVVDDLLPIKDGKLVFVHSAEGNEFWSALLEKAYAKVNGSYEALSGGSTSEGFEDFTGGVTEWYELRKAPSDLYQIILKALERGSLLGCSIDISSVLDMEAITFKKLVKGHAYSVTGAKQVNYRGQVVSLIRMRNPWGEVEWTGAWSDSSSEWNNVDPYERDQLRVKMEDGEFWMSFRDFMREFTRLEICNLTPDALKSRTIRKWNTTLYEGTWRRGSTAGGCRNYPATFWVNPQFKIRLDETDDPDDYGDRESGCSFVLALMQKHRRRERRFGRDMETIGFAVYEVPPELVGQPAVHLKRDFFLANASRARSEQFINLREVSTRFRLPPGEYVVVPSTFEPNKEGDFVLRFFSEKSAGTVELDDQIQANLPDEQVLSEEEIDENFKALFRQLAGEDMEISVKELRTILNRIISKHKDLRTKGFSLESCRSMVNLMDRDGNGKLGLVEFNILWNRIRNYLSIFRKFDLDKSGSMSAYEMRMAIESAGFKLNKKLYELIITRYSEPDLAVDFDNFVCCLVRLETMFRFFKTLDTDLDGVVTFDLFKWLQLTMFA
T1 sequence (P04632 1-268 partner): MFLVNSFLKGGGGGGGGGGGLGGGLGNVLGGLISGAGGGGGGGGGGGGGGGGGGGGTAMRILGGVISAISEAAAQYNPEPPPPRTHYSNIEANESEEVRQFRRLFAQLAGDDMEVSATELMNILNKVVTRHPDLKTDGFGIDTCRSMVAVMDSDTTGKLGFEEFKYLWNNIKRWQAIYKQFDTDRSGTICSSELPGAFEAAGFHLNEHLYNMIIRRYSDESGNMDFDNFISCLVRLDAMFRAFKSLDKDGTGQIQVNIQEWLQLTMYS
Nature of the test: Km determination for Calpain 1 using the protease assay. The format is biochemical. To be noted: substrate at 0.078, 0.15, 0.31 and 0.62 μM, 13.15 U/ml Calpain 1, 5 minutes, room temperature, N=3; read-out: Km of labeled peptide substrate for Calpain 1. As for the experimental part: (§1) Pepsin A was purchased from Sigma. TPCK Trypsin was obtained from Pierce Biotechnology.
Calpain 1 Lissamine rhodamine-labeled peptide substrate (Dye-[…] PRDpSA) (SEQ. ID NO 3) at 0.078, 0.15, 0.31 and 0.62 μM were digested with 13.15 U/ml Calpain 1. The Lissamine rhodamine-labeled peptide was prepared in 25 mM Tris, 150 mM NaCl pH 7.5, 10 mM CaCl2, and Calpain 1 was prepared in 25 mM Tris, 150 mM NaCl pH 7.5. […] N=3.

The target in test [2] is T2, MMP-3 (Homo sapiens, UniProt P08254).
T2 construct: Recombinant MMP-3 catalytic subunit; purchased Calbiochem
Kind of test: Km determination for MMP-3 using the protease assay. It is filed as biochemical. To be noted: substrate at 1, 2, 5 and 10 μM, 0.88 mU/ml MMP-3, 5 minutes, room temperature, N=3; read-out: Km of labeled peptide substrate for MMP-3.
Description: as §1

T2 sequence (P08254 100-272 limits assumed, species assumed): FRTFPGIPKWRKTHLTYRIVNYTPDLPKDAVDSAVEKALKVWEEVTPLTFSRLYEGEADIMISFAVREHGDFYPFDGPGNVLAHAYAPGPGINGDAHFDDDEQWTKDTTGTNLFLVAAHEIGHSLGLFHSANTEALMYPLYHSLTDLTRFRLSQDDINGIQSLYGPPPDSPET

For “Dye-QQQEVYGMM PRDpSA: Calpain 1 Lissamine rhodamine-labeled peptide substrate, label at the N-terminus ({Lissamine rhodamine}-QQQEVYGMMPRD[pS]A)”, in test [1], the Km was determined as 0.17 ± 0.01 µM. Take “Dye-RPKPVE-Norvaline-WRKpSA: MMP-3 Lissamine rhodamine-labeled peptide substrate, label at the N-terminus ({Lissamine rhodamine}-RPKPVE[Nva]WRK[pS]A)”: the Km in test [2] turned out to be 1.44 ± 0.15 µM.
